From publication PMC4608562, “Carbohydrate Recognition Specificity of Trans-sialidase Lectin Domain from Trypanosoma congolense” (PLoS Neglected Tropical Diseases, 2015)
Where “and” joins values, the source holds several entries; their conditions need not be identical. Identical values can stand only once.

What was measured:
TconTS2-LD = target: T1, TconTS2-LD (Trypanosoma congolense, UniProt W0YLD6); experiment: STD NMR; format: binding; details: 5.5 uM protein, 3.45 mM ligand; deuterated phosphate pD 7.4; site distinct from mannotriose site
T1 construct: gene TS2; C-terminal lectin-like domain without the CD-LD linker alpha-helix; N-terminal His-MBP and C-terminal SNAP-Strep tags kept; expressed in E. coli Rosetta pLacI

[1] = target: TconTS1 enzymatically deglycosylated with EndoHf (native conditions) (Trypanosoma congolense); experiment: SEC; Superdex 200 10/300 GL, 10 mM phosphate buffer pH 7.4, 4°C, 0.5 mL/min, 100 to 300 μg TconTS in 500 μL, detection at 280 nm; column calibrated with gel filtration markers 29,000-700,000 Da; monomer, dimer and oligomer peaks
[2] = target: recombinant TconTS1 (Trypanosoma congolense trans-sialidase 1; CD, α-helix and LD) (Trypanosoma congolense); experiment: as above
[3] = target: recombinant TconTS2 (Trypanosoma congolense trans-sialidase 2; CD, α-helix and LD) (Trypanosoma congolense); experiment: as above

Compound: OC[C@H]1O[C@@H](O[C@H]2[C@H](O)[C@@H](O)[C@@H](O)O[C@@H]2CO)[C@H](O)[C@@H](O)[C@H]1O [lactose, β-D-galactosyl-(1–4)-α-D-glucose]
- STD NMR (TconTS2-LD): Binding of lactose to TconTS2-LD was also clearly observed (Fig 3B)

Compound: TconTS1 enzymatically deglycosylated with EndoHf (native conditions) (enzyme)
- stoichiometry N [1]: 2

Compound: recombinant TconTS1 (Trypanosoma congolense trans-sialidase 1; CD, α-helix and LD) (enzyme)
- ratio of monomer to dimer (monomer:dimer) [2]: 1
- stoichiometry N [2]: 2 and 4

Compound: recombinant TconTS2 (Trypanosoma congolense trans-sialidase 2; CD, α-helix and LD) (enzyme)
- stoichiometry N [3]: 2
